This is an account of results in patent US20120178691A1, “FACTOR VIII COMPOSITIONS AND METHODS OF MAKING AND USING SAME” (Amunix Operating Inc., priority 2010, published 2012).

Series [1] can be described thus: Analytical size exclusion chromatography of XTEN fusion proteins. The class given is physicochemical. The following applies: for Apparent MW: SEC, calibrated with globular protein standards; for Apparent Molecular Weight Factor: apparent MW relative to actual MW; for RH: hydrodynamic radius from SEC. The method, then: Size exclusion chromatography analyses were performed on fusion proteins containing various therapeutic proteins and unstructured recombinant proteins of increasing length. […] Chromatogram profiles were monitored using OD214 nm and OD280 nm Column calibration for all assays were performed using a size exclusion calibration standard from BioRad; the markers include thyroglobulin (670 kDa), bovine gamma-globulin (158 kDa), chicken ovalbumin (44 kDa), equine myoglobuin (17 kDa) and vitamin B12 (1.35 kDa). […] Based on the SEC analyses for all constructs evaluated, including a […] composition, the apparent molecular weights, the apparent molecular weight factor (expressed as the ratio of apparent molecular weight to the calculated molecular weight) and the hydrodynamic radius (RH in nm) are shown in Table 16.
Background: Size exclusion chromatography separates by hydrodynamic size, large species first.

Another series has as its system activation of factor X. The series is described as follows: Chromogenix Coamatic Factor VIII activity assay. The class given is biochemical. From the text: BDD FVIII and FVIII-XTEN fusion protein constructs pBC0114, pBC0135, pBC0136, pBC0137, pBC0145, pBC0146, and pBC0149, in various configurations, including XTEN_AE288 and AG288 inserted at the C-terminus of the FVIII BDD sequence and FVIII-XTEN fusion proteins with AE42 and AE288 inserted after residue 745 (or residue 743) and before residue 1640 (or residue 1638) of the B-domain […], were expressed in transiently transfected Freestyle 293 cells, as described above, and tested for procoagulant activity. […] The assay was performed according to manufacturer's instructions using the end-point method, which was measured spectrophotometrically at OD405 nm A standard curve was created using purified FVIII protein at concentrations of 250, 200, 150, 100, 75, 50, 37.5, 25, 12.5, 6.25, 3.125 and 1.56 mU/ml. […] The cell culture media of the FVIII-XTEN constructs were obtained as described, above, and were tested in replicates at 1:50, 1:150, and 1:450 dilutions and the activity of each was calculated in U/ml.
Using the Chromogenix Coamatic Factor VIII (Chromogenix, cat#82258563) the activity of FVIII is assessed as follows. […] The color is then read spectrophotometrically at 405 nm The generated factor Xa and thus the intensity of color is proportional to the factor VIII activity in the sample. […]

The test system of the next series is FVIII activity. The series is described as follows: Two-stage chromogenic FVIII activity assay of transient transfection cell culture supernatant. The format is biochemical. The following applies: HEK293 cell culture supernatant, 5-day transient transfection. The method, then: Two FVIII-XTEN fusion proteins, FVIII-AE288 (F8X-40) and FVIII-AG288 (F8X-41), contain an AE288 XTEN or an […] XTEN, respectively, fused at the C-terminus of FVIII C2 domain. To determine if FVIII activity was retained after XTEN fusion, HEK293 cells were transfected separately with these two FVIII-XTEN fusion constructs by using polyethylenimine (PEI) in serum-free medium. At 3 or 5 days post-transfection, the cell culture supernatant was tested for FVIII activity by a two-stage chromogenic assay. Purified recombinant FVIII, calibrated against WHO international standard, was used to establish the standard curve in the chromogeinic assay. […] (Table 26).

B1: AC404 (protein)
chain: AVFVTQEEAHGVLHRRRRANAFLEELRPGSLERECKEEQCSFEEAREIFKDAERTKLFWISYSDGDQCASSPCQNGGSCKDQLQSYICFCLPAFEGRNCETHKDDQLICVNENGGCEQYCSDHTGTKRSCRCHEGYSLLADGVSCTPTVEYPCGKIPILEKRNASKPQGRIVGGKVCPKGECPWQVLLLVNGAQLCGGTLINTIWVVSAAHCFDKIKNWRNLIAVLGEHDLSEHDGDEQSRRVAQVIIPSTYVPGTTNHDIALLRLHQPVVLTDHVVPLCLPERTFSERTLAFVRFSLVSGWGQLLDRGATALELMVLNVPRLMTQDCLQQSRKVGDSPNITEYMFCAGYSDGSKDSCKGDSGGPHATHYRGTWYLTGIVSWGQGCATVGHFGVYTRVSQYIEWLQKLMRSEPRPGVLLRAPFPGSPGSPAGSPTSTEEGTSESATPESGPGTSTEPSEGSAPGSPAGSPTSTEEGTSTEPSEGSAPGTSTEPSEGSAPGTSESATPESGPGSEPATSGSETPGSEPATSGSETPGSPAGSPTSTEEGTSESATPESGPGTSTEPSEGSAPGTSTEPSEGSAPGSPAGSPTSTEEGTSTEPSEGSAPGTSTEPSEGSAPGTSESATPESGPGTSTEPSEGSAPGTSESATPESGPGSEPATSGSETPGTSTEPSEGSAPGTSTEPSEGSAPGTSESATPESGPGTSESATPESGPGSPAGSPTSTEEGTSESATPESGPGSEPATSGSETPGTSESATPESGPGTSTEPSEGSAPGTSTEPSEGSAPGTSTEPSEGSAPGTSTEPSEGSAPGTSTEPSEGSAPGTSTEPSEGSAPGSPAGSPTSTEEGTSTEPSEGSAPGTSESATPESGPGSEPATSGSETPGTSESATPESGPGSEPATSGSETPGTSESATPESGPGTSTEPSEGSAPGTSESATPESGPGSPAGSPTSTEEGSPAGSPTSTEEGSPAGSPTSTEEGTSESATPESGPGTSTEPSEGSAPGTSESATPESGPGSEPATSGSETPGTSESATPESGPGSEPATSGSETPGTSESATPESGPGTSTEPSEGSAPGSPAGSPTSTEEGTSESATPESGPGSEPATSGSETPGTSESATPESGPGSPAGSPTSTEEGSPAGSPTSTEEGTSTEPSEGSAPGTSESATPESGPGTSESATPESGPGTSESATPESGPGSEPATSGSETPGSEPATSGSETPGSPAGSPTSTEEGTSTEPSEGSAPGTSTEPSEGSAPGSEPATSGSETPGTSESATPESGPGTSTEPSEGSAPGSSS
In the case of B1, in series [1], the “Apparent MW” value stood at 1900 kDa, the “Apparent Molecular Weight Factor” value came out at 14.7 and the RH is on record as 10.1 nm.

B2: pBC0114: base construct expressing BDD FVIII, pcDNA4-FVIII_4-…-Myc-SPATG-His, lacking XTEN insertions (protein)
chain: MQIELSTCFFLCLLRFCFSATRRYYLGAVELSWDYMQSDLGELPVDARFPPRVPKSFPFNTSVVYKKTLFVEFTDHLFNIAKPRPPWMGLLGPTIQAEVYDTVVITLKNMASHPVSLHAVGVSYWKASEGAEYDDQTSQREKEDDKVFPGGSHTYVWQVLKENGPMASDPLCLTYSYLSHVDLVKDLNSGLIGALLVCREGSLAKEKTQTLHKFILLFAVFDEGKSWHSETKNSLMQDRDAASARAWPKMHTVNGYVNRSLPGLIGCHRKSVYWHVIGMGTTPEVHSIFLEGHTFLVRNHRQASLEISPITFLTAQTLLMDLGQFLLFCHISSHQHDGMEAYVKVDSCPEEPQLRMKNNEEAEDYDDDLTDSEMDVVRFDDDNSPSFIQI
modifications: Myc and His tags
In the case of B2, in the series with activation of factor X (activity (Chromogenix) per concentration (ELISA)), the “Specific Activity” value turned out to be 5000 IU/mg. In addition, the Activity with activation of factor X (cell culture medium of transiently transfected Freestyle 293 cells, Chromogenix Coamatic Factor VIII assay) stood at 3.0 IU/ml.

B3: pBC 0114 (protein)
chain: B2 chain
For B3, the FVIII activity in the series with FVIII activity (Sample A) amounted to 6.68 IU/ml; in the series on FVIII activity (Sample B), 7.61 IU/ml.

B4: AC398 (protein)
chain: AVFVTQEEAHGVLHRRRRANAFLEELRPGSLERECKEEQCSFEEAREIFKDAERTKLFWISYSDGDQCASSPCQNGGSCKDQLQSYICFCLPAFEGRNCETHKDDQLICVNENGGCEQYCSDHTGTKRSCRCHEGYSLLADGVSCTPTVEYPCGKIPILEKRNASKPQGRIVGGKVCPKGECPWQVLLLVNGAQLCGGTLINTIWVVSAAHCFDKIKNWRNLIAVLGEHDLSEHDGDEQSRRVAQVIIPSTYVPGTTNHDIALLRLHQPVVLTDHVVPLCLPERTFSERTLAFVRFSLVSGWGQLLDRGATALELMVLNVPRLMTQDCLQQSRKVGDSPNITEYMFCAGYSDGSKDSCKGDSGGPHATHYRGTWYLTGIVSWGQGCATVGHFGVYTRVSQYIEWLQKLMRSEPRPGVLLRAPFPGSPGTSESATPESGPGSEPATSGSETPGTSESATPESGPGSEPATSGSETPGTSESATPESGPGTSTEPSEGSAPGSPAGSPTSTEEGTSESATPESGPGSEPATSGSETPGTSESATPESGPGSPAGSPTSTEEGSPAGSPTSTEEGTSTEPSEGSAPGTSESATPESGPGTSESATPESGPGTSESATPESGPGSEPATSGSETPGSEPATSGSETPGSPAGSPTSTEEGTSTEPSEGSAPGTSTEPSEGSAPGSEPATSGSETPGTSESATPESGPGTSTEPSEGSAPGSSS
Take B4: in series [1], the “Apparent MW” value is on record as 650 kDa, the “Apparent Molecular Weight Factor” value came out at 8.5 and the RH was 8.2 nm.
